Reference: the nanobody polyreactivity screen of Harvey et al. (2022)

Test: yeast display, Sf9 membrane polyspecificity reagent, FACS + sequencing; frameworks hold sequencing errors
Summary of the method: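 Nanobodies came from a synthetic yeast display library in Saccharomyces cerevisiae BJ5465, induced with galactose for 36–48 hours and stained for 1 hour at 4 °C with 10% biotinylated, detergent-solubilized Sf9 membrane reagent. Cells were enriched on streptavidin microbeads and then FACS-sorted, with low and high (top ~1%) gates set on anti-HA fluorescence for expression and streptavidin fluorescence for reagent binding. Each polyreactivity label reflects the gate a clone came from. Genes were amplified by colony PCR, sequenced by MiSeq 2 × 250 and filtered by CDR length.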

| Sequence | polyreactivity (PSR sort gate) |
| --- | --- |
| QVKLVESGGGLVQAGGSLRLSCAASGSTFASYAMGWYRQDPGKQRELVAAITRSGGSSTYADSVKGRFTISRDNAKITVYLQMNSLKPEDTAVYYCAARYLYSYYVSYDYWGQGTQLTVSS | high polyreactivity |
| QVQLVESGGGLVQAGGSLRLSCAASGSTFYGYTMGWYRQAPGKERELVAAISWRGGSTYYADSVKGRFTISRDNAKNTVYLQMNSLKPEDTAVYYFAARPYIVTYPWRRYDYWGQGTQVTVSS | high polyreactivity |
| QVQLVESGGGLVQAGGSLRLSCAASGSTLSRYVMGWYRRAAGKERELVAAISSSGGSTYYADSVKGRFTISRDNAKNTVYLQMNSLKPEDTADYYCNVDHWRRGRSDNYWGQGTQVTVSS | high polyreactivity |
| QVQLVESGGGLVQAGGSLRLSCAASGSIFVFYAMGWYRQAPGKERELVASITRSGVSTYYADSVKGRFTISRDNAKNTVYLQMNSLKPEDTAVYYCNVYKGNVVEHDYWGQGTQVTVSS | high polyreactivity |
| QVQLVESGGGLVQAGGSLRLSCAASGSTFAKYAMGWYRQAPGKERELVAAIRSGGSTNYADSVKGRFTISRDNAKITVYLQMYSLKPEDTAVYYCAAKRDVSRPVYFRNDYWGQGTQVTVSS | low polyreactivity |
| QVQLVESGGGLVQAGGSLRLSCAASGRIIRYYAMGWYRQAPGKERELVATISRSGGSTFYADSVKGRFTISRDNAKNTVYLQMNSLKPEDTAVYYCNARYQTGGYGYWGQGTQVTVSS | high polyreactivity |
| QVQLVESGGGLVQAGGSLRLSCAASGRIFSYNAMGWYRQAPGKERDLVASISGGGSTYADSVKGRFTISRDNAKNTVYLQMNRLKPADTAVYYCNAVHFSYEYDYWGQGTQVTVSS | high polyreactivity |
| QVQLVESGGGLVQAGGSLRLSCAASGIIFGEYPMGWYRQAPGKERELVAAISWSGGSTYYADSVKGRFTISRDNAKNTVYLQMNSLKPEDTAVYYCNPLPDIVIGGIIGYDYWGQGTQVTVSS | high polyreactivity |
| QVQLQESGGGLVQAGGSLRLSCAASGTITVLYKMGWFRQAPGKEREFVASINYGTSTYYADSVKGRFTVSRDSAKNTVYLQMNSLKPEDTAVYFCSAAFRWQDVYRYWGQGTQVTVSS | low polyreactivity |
| QVQLVESGGGLVQAGGSLRLSCAASGSIFAVYAMGWYRQAPGKERELVAASSTDYADSVKGRFTISRDYAKNTVYLQMNSLKPEDTAVYYCANVGFGIPGGFYYWGQGTKVTVSS | low polyreactivity |
| QVQLVESGGGLVQAGGSLRLSCAASGSIFFTYAMGWYRQAPGKERELVAGISWGGGSTHYADSVKGRFTISRDNAKNTVYLQMNSLKPEDTAVYYCARVWPYPSTEYGYTGRLYDYWGQGTQVTVSS | low polyreactivity |
| QVQLVESGGGLVQAGGSLRLSCAASGRTFWTYTLGWYRQAPGKEREFVAAITFGDGSTSYADSVKGRFTISRDNAKNTVYLQMNSLKPEDTAVYYCAAADQVGQEDDYWGQGTQVTVSS | low polyreactivity |
| QVQLVESGGGLVQAGGSLRLSCAASGRIFRFYAMGWSSQAPGKERELVAAISTSGRTNYADSVKGRFTISRDNAKNTVYLQMNSLKPEDTAVYYCAAGTVLQGWSGAYGYWGQGTQVTVSS | high polyreactivity |
| QVQLVESGGGLVQAGGSLRLSCAASGYIFEVNAMGWYRQAPGKERELVATIDTSSGSTNYADSVKGRFTISRDNAKNTVDLQMNSLKPEDTAVYYCAADDETVFLQDDYWGQGTQVTVSS | low polyreactivity |
| QVQLVESGGGLVQAGGSLRLSCAASGRIFPTYTMGWYRQAPGKERELVAAIRRGGGRTYYADSVKGRFTISRDNAKNTVYLQMNSLKPEDTAVYYCNKDVYGYSRTGPRGYDYWGQGTQVTVSS | high polyreactivity |
| QVQLVESGGGLVQAGGSLRLSCAASGYIFVNYGMGWYRQAPGKERELVAVITNGGRTNYADSVKGRFTISRDNAKNTVYLQMNSLKPEDTAVYYCNARSFRQYYYWGQGTQVTVSS | high polyreactivity |
| QVQLVESGGGFVQAGCSLRLSCDASGSIFAPNVMGCYRQAPGKERELDAAINFIGGRTYYADSVKGRFTISRDNAKNTVYLQMNSLKTEDTSVYYCNVGSYYRSYSGDFEYWGQGTQVTVSS | high polyreactivity |
| QVQLVESGGGLVQAGGSLRLSCAASGRIFYPYAMGWYRQAPGKERELVARITWTTTSTYYADSVKGRFTISRDNAKNTVYLQMNSLKPDDTAVYYCAADGRVRTWGNLRDYWGQGTQVTVSS | high polyreactivity |
| QVQLVESGGGLVQAGGSLRLSCAASGNIFDSYGMGWYRQAPGKERELVATINTSSGSTYYADSVKGRFTISRDNAKNTVYIQMNSLKPEDTAVYYCAAEWYPYTWGYGYWGQGTQVTVSS | low polyreactivity |
| QVQLVESGGGLVQAGGSLRLSCAASGSTFGHNAMGWYRQAPGKERELVAAIDSGDGTTYADSVKGRFTISRDNAKNTVYLQMNSLKPEDTAVYYCAATTDRAEDDDNIGGYWGQGTQVTVSS | low polyreactivity |
| QLQLVESGGGFVQAGGSLRLSCDASGSTFGNYTMGWYRQAPGKERELVAAISFSGGRTYYADSVKGRFTISRDNAKNTVYLQMNSLKPADTAVYYCAKRSYGYSAFIYNYWGQGTQVTVSS | high polyreactivity |
| QVQLVESGGGLVQAAGSLRLSCAPSGSIYNYTIGWYRQAPGKERELVAAISRSGTRTYYADSVKGRFTISRDNAKNTVYLQMNSLKPEDTAVYYCAARILPPGDNVDDDYWGQGTQVTVSS | high polyreactivity |

| Sequence | polyreactivity (PSR sort gate) |
| --- | --- |
| QVQLVESGGGLVQAGGSLRLSCAASGSIFSGKAMGWYRQAPGKERELVASINRSGGSTYSADSVKGRFTISRDNAKYTVYLQMNSLKPEDTAVYSCAARRVWLAGYDSWGQGTQVTVSS | low polyreactivity |
| QVQLVESGGGLVQAGGSLRLSCAASGSILGFNAMGWYRQPPGKERELVAAIRWSGDSTYADSVKGRFTISRDNAKNSVYLQMNSLKPEDTAVYYCNAVTTYGYWYKYDYWGQGTQVTVSS | low polyreactivity |
| QVQLVESGGGLVQAGGSLRLSCAASGRIFPEYAMGWYRQAPGKERELVAAITSSGRTYYADSVKGRFTISRDNAKNTVYLQMNSLKPEDTAVYYCAASFRRYYRWDYGFWGQGTQVTVSS | high polyreactivity |
| QVQLVESGGGLVQAGGSLRLSCAASGSTFYIYAMGWYRQAPGKERELVATISRGGSTNYADSVKGRFTISRDNAKNTVYLQMNSLKPEDTAVYYCAAEAAFTSYWWSVTYPYDYWGQGTQVTVSS | high polyreactivity |
| QVQLVESGGGLVQAGGSIRLSCAASGNTFRYYAMGWYRQAPGKERELVAGISRRGGSTYYADSVKGRFTISRDNAKNTVYLQMNSLKPEDTAVYYCNAVGGNGAVVAYGYWGQGTQVTVSS | high polyreactivity |
| QVQLVESGGGLVQAGGSLRLSCAASGFILVGYAMGWYRQARGKERELVAAITSGGTTSYADAVKGSFIISRDNAKNTVYLQMISLKPEESAVYYCAAVQWDSSSKYYYWGQGTQVTVSS | low polyreactivity |
| QVQLVESGGGLVQAGGSLRLSCAASGRIFRGYAMGWYRQAPGKEREFVAAITKNGGSTYYADSVKGRFTISRDNAKNTVYLQMHSLKPEDTAVYYCAVRAWDPYTGKSDYWGQGTQVTVSS | low polyreactivity |
| QVQLVESGGGLVQAGGSLRLSCAASGSLFSTYAMGWYRPAPGKERELVAAIPTSGGRTYYADSVKGRFTISRDNAKNTVYLQMNSLKPEDTAVYDCNAVRGGRYGLDYWGQGTQVTVSS | high polyreactivity |
| QDQLLESVGGLVQAGGSLRLSCAATGSTFHRSVMGSYRQAPGKEREMVAVINSTGGSTYYADSVKGRFTISLDNAKNTVYLQMNSVKPEDSAVYYFAADLYSIEYETAYRGYEYWGQGTQVTVSS | low polyreactivity |
| QVQLVESGGGLVQAGGSLRLSCAASGRTFNSYAMGWYRQAPGKERELVAGITGTGGSTYYADSVKGRFTISRDNAKNTVYLQMNSLKPEDTAVYYCNALRRCQRYWDPYGYDYWGQGTQVTVSS | high polyreactivity |
| QVQLVESGGGLVQAGGTLRLSCAATGRILHIYAMGWYRQAPGKERELVAVISTGGGDTYYADSVKGRFTISRDNANNTVYLQMNSRKPEDTAVYYCAADGYWAGYGYDYWGQGTQVTVSS | high polyreactivity |
| QVQLVESGGGLVQAGGSFRLSCAASGRIFSPNAMGWYRQAPGKEREFVAAINDRGGNTYYADSVKGRFTISRDNAKNTVYLQMNSLKPEDTAVYYCAATVTVFYTRYYYWGQGTQVTVSS | high polyreactivity |
| QVQLVESGGGLVQAGGSLRLSCAASGRISNDYAMGWYRQAPGKVRELVATITFSGGDTYYADSVKGRFTISRDNAKNTVYLQMNSLKPEDTSVYYCAASKWRSYSGGWWRLLFDYWGQGTQVTVSS | low polyreactivity |
| HGQLVESGGGLVHAGGSLRLSCAASGSTFAIYALGWYREAPGKERELVAGITGRGTSTYYADSVKGRFTISRDNAKNTVYLQMNSLKPEDTAVYYCNKVRYAFRYDYWGQGTQVTVSS | high polyreactivity |
| QVQLVESGGGLVQAGGSLRLRCAASGITFSGNAMGWYRQAPRKERELVAAITFSGGRTYYADSVKGSFTISRDNAKNTVYLQMNSLKPEDSAVYYCAAETPRGRWLGDYWGQGTQVTVSS | low polyreactivity |
| QVQLVESGGGLVQAGGSLRLSCAASGITFLVNAMGWYRQAPGKERELVATITSGDSTSYADSVKGRFTISRDNAKNTVYLQMNSLKPEDTAVYFCAARPGYWAQYYPVGSRNYYWGQGTQVTVSS | low polyreactivity |
| QVQLVESGGGLVQAGGSLRLSCDASGSTFYYYAMGWYRQAPGKERELVDSISFSGGSTYYADSVKGRFTISRDNAKNTVYLQMNSLKPEDTAVYYCGYYYWGQGTQVTVSS | low polyreactivity |
| QVHLVESGGGLVQAGGSLRLSCAASGFTFRYYGMGRYRQAPGKERELVAAISRGGSTNYADSVKGRFTISRDNAKNTVYLQMTSLKPEDTAVYYFAKAGLTYRALRYYWGQGTQVTVSS | high polyreactivity |
| QVQLLESGVGLVQAGGSLRLSSAASGRNFQQNAMAWYRQAPGKERELVAAINSRGGRTYYADSVKGRFTISRDNAKNTVYLQMNSLKPEDTAVYYCGAYFRNYRSYYYWGQGTQVTVSS | high polyreactivity |
| QVQLVESGGGLVQSGGSLRLSCAASGRIFRYYAMGSYRQAPGKERELVSAITRGGSTNYADSVKGRFTISRDNAKNTVYLQMNSLKPEDTADYYCATRQSWYPRWMDYWGQGSQVTVSS | high polyreactivity |
| QVQLVESGGGLVQAGGSLRLSCAASGFIFRYYAMGWYRQAPGKERELVAAIRRGGSTYYADSVKGRFTISRDNAKNTVYLQMNSLKPEDTAVYYCAASFWGIAMGYWGQGTQVTVSS | high polyreactivity |
